The target in the experiment is T1, recombinant cIAP1 protein (human, UniProt Q13490 1-618).
T1 construct: the whole cIAP1, human cDNA; cloned in pGEX-6P-1; also called released from GST-cIAP1 (GST-cIAP); source: E. coli DH5α, purified (Glutathione Sepharose 4B), released from the beads with 3C protease (Turbo3C)
Kind of experiment: pull-down; GST pull-down: 2 μg polyubiquitin chains or 0.5 μg cIAP1 with 0.5 μg GST or GST-ZnF5-7 proteins and Glutathione Sepharose 4B in TNE buffer (20 mM Tris-HCl pH 7.5, 130 mM NaCl, 1% Triton X-100, 1 mM EDTA) with 0.5 mM DTT and 0.1 mg/ml BSA, 3 hr; immunoblot. The settings on record: both partners purified. (In western blotting, separated proteins are transferred to a membrane and probed.)

T1 sequence (Q13490 whole entry): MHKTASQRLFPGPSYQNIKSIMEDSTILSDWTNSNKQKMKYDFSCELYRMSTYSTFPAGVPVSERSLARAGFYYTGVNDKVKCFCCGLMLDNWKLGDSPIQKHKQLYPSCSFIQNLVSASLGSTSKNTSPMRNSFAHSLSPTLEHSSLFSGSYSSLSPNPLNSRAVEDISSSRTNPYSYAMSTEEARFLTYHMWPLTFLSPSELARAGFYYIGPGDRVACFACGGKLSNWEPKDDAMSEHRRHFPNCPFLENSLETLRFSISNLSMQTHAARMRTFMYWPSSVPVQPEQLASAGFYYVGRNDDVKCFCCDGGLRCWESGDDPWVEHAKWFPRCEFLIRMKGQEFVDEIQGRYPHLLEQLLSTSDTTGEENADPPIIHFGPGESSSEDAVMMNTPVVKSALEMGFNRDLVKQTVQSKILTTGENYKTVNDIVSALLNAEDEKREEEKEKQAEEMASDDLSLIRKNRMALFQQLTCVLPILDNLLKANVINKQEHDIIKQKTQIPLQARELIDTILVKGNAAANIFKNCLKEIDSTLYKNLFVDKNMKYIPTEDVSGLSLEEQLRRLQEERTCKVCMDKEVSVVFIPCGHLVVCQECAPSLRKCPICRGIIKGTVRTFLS

B1: GST-A20-ZnF5-7 (domain or fragment, human, UniProt P21580 647-790, looked up)
chain: TASRFQNTIPCLGRECGTLGSTMFEGYCQKCFIEAQNQRFHEAKRTEEQLRSSQRRDVPRTTQSTSRPKCARASCKNILACRSEELCMECQHPNQRMGPGAHRGEPAPEDPPKQRCRAPACDHFGNAKCNGYCNECFQFKQMYG
notes: A20, human, fragment aa 647-790 encompassing ZnF5 to ZnF7; cloned in pGEX-6P-1; also called GST-ZnF5-7; source: E. coli DH5α, purified (Glutathione Sepharose 4B), dialyzed with PBS
As to B1, the binding result is recorded as “binds”.

The record behind these values is article PMC3764444, “Involvement of A20 in the molecular switch that activates the non-canonical NF-кB pathway” (Scientific Reports, 2013).
